Results from the supplement of paper PMC7877785.
± gives the uncertainty stated by the source.

Assay: self-splicing fitness, log relative to wild type (ln ratio); higher = more splicing; Tetrahymena group I intron in knt gene, E. coli kanamycin selection, DiMSum; sequences stand for … in CUCUCU…GGAGGGAAAAGUUAUCAGGCAUGCACCUGGUAGCUAGUCUUUAAACCAAUAGAUUGCAUCGGUUUAAAAGGCAAGACCGUCAAAUUGCGGGAAAGGGGUCAACAGCCGUUCAGUACCAAGUCUCAGGGGAAACUUUGAGAUGGCCUUGCAAAGGGUAUGGUAAUAAGCUGACGGACAUGGUCCUAACCACGCAGCCAAGUCCUAAGUCAACAGAUCUUCUGUUGAUAUGGAUGCAGUUCACAGACUAAAUGUCGGUCGGGGAAGAUGUAUUCUUCUCAUAAGAUAUAGUCGGACCUCUCCUUAAUGGGAGCUAGCGGAUGAAGUGAUGCAACACUGGAGCCGCUGGGAACUAAUUUGUAUGCGAAAGUAUAUUGAUUAGUUUUGGAGUACUCGUGGUCG
How it was run: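 The eight P1ex-region nucleotides of an intron in the knt kanamycin-resistance gene on pET-22b(+) were all randomised and the library put into E. coli BL21(DE3). Six replicate transformations were grown overnight at 37°C or 30°C on LB agar with or without 25 μg/mL kanamycin, together with 100 μg/mL carbenicillin, 50 μM IPTG and 0.2% rhamnose. Colonies were pooled and amplicon-sequenced on an Illumina HiSeq 2500. Fitness from DiMSum is the error-weighted combination of wild-type-normalised replicate fold changes, kanamycin over none.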

| Sequence | self-splicing fitness (ln) (30 °C) | self-splicing fitness (ln) (37 °C) |
| --- | --- | --- |
| AUGUAGCAAUAUUACGCACC | -1.63 ± 0.15 | -0.228 ± 0.18 |
| GAGCAGCAAUAUUACGAAUA | -2.87 ± 0.37 | -1.8 ± 0.24 |
| AGCAAGCAAUAUUACGCUUA | -2.94 ± 0.15 | -1.71 ± 0.11 |
| GCUUAGCAAUAUUACGAGAC | -2.64 ± 0.22 | -1.54 ± 0.18 |
| ACCCAGCAAUAUUACGAGGG | -3.43 ± 0.15 | -2.47 ± 0.17 |
| UUUGAGCAAUAUUACGAGAU | -3.65 ± 0.42 | -3.12 ± 0.37 |
| GGAAAGCAAUAUUACGCCGG | – | -2.24 ± 0.37 |
| CUUCAGCAAUAUUACGCUUA | -3.34 ± 0.2 | -2.4 ± 0.17 |
| AUUAAGCAAUAUUACGAUCG | -2.33 ± 0.12 | -0.671 ± 0.12 |
| GGCCAGCAAUAUUACGCGCC | -3.11 ± 0.24 | -2.05 ± 0.44 |
| CGCGAGCAAUAUUACGCUGG | -1.39 ± 0.18 | -1.31 ± 0.28 |
| CAGAAGCAAUAUUACGAGAU | -3.23 ± 0.17 | -2.44 ± 0.23 |
| AACUAGCAAUAUUACGCAUA | -1.64 ± 0.15 | -1.1 ± 0.14 |
| CGUCAGCAAUAUUACGUCCU | -1.88 ± 0.081 | -1.27 ± 0.098 |
| UCGAAGCAAUAUUACGGCUG | -1.98 ± 0.14 | -0.494 ± 0.14 |
| UAUUAGCAAUAUUACGCGUC | -4.05 ± 0.35 | -2.57 ± 0.26 |
| CCCCAGCAAUAUUACGUUGU | -3.93 ± 0.12 | -2.77 ± 0.13 |
| AAAAAGCAAUAUUACGAAGC | – | -1.85 ± 0.22 |
| CCCAAGCAAUAUUACGAUCA | -3.67 ± 0.26 | -2.57 ± 0.16 |
| GCCGAGCAAUAUUACGUGCU | -3.92 ± 0.21 | -2.08 ± 0.15 |
| AUUUAGCAAUAUUACGUGGG | -3.33 ± 0.3 | -2.44 ± 0.3 |
| AGUAAGCAAUAUUACGUCGU | -2.12 ± 0.13 | -0.496 ± 0.12 |
| UUUAAGCAAUAUUACGUGCU | -3.09 ± 0.18 | -1.41 ± 0.15 |
| UUUAAGCAAUAUUACGAUCU | -1.05 ± 0.1 | -0.724 ± 0.13 |
| GCGCAGCAAUAUUACGGAUG | -1.72 ± 0.1 | -1.39 ± 0.12 |
| UUGCAGCAAUAUUACGGAUU | -2.96 ± 0.23 | -2.91 ± 0.33 |

| Sequence | self-splicing fitness (ln) (30 °C) | self-splicing fitness (ln) (37 °C) |
| --- | --- | --- |
| CUGAAGCAAUAUUACGUUCU | -3.39 ± 0.22 | -3.45 ± 0.37 |
| UUAAAGCAAUAUUACGAUGC | -2.82 ± 0.11 | -2.2 ± 0.083 |
| AAGUAGCAAUAUUACGGCGA | -0.41 ± 0.11 | -0.0374 ± 0.11 |
| UAAGAGCAAUAUUACGCGAA | -2.74 ± 0.22 | -1.6 ± 0.16 |
| GUAUAGCAAUAUUACGAAAU | -3.05 ± 0.25 | -1.63 ± 0.22 |
| AGACAGCAAUAUUACGCCGC | – | -1.62 ± 0.38 |
| AGACAGCAAUAUUACGACCC | -0.868 ± 0.29 | -0.564 ± 0.3 |
| CUGGAGCAAUAUUACGUUGA | -1.67 ± 0.34 | -2.26 ± 0.49 |
| GGAAAGCAAUAUUACGCAAU | -2.27 ± 0.45 | -0.77 ± 0.32 |
| UUUCAGCAAUAUUACGACGG | -1.02 ± 0.11 | 0.205 ± 0.17 |
| CUACAGCAAUAUUACGUGCG | -1.75 ± 0.081 | -0.715 ± 0.089 |
| AGAUAGCAAUAUUACGGCAG | -0.945 ± 0.12 | -0.735 ± 0.14 |
| UUGAAGCAAUAUUACGCUAA | -0.361 ± 0.085 | -0.109 ± 0.097 |
| UUGUAGCAAUAUUACGUAAA | -1.72 ± 0.22 | -0.0948 ± 0.21 |
| UUAGAGCAAUAUUACGGGCG | -2.23 ± 0.14 | -1.13 ± 0.17 |
| UCAGAGCAAUAUUACGCGUA | -2.57 ± 0.32 | -0.569 ± 0.16 |
| UUUUAGCAAUAUUACGUCGG | -1.95 ± 0.15 | -0.321 ± 0.17 |
| ACCAAGCAAUAUUACGUGCU | -1.7 ± 0.096 | -0.864 ± 0.096 |
| GAUCAGCAAUAUUACGUGGC | -2.95 ± 0.21 | -0.582 ± 0.15 |
| UAGAAGCAAUAUUACGCUAU | -4.05 ± 0.27 | -3.13 ± 0.27 |
| CGGGAGCAAUAUUACGGGCG | -2.44 ± 0.31 | -2.67 ± 0.41 |
| GACAAGCAAUAUUACGGAUG | -2.92 ± 0.11 | -1.75 ± 0.12 |
| ACGUAGCAAUAUUACGUUAC | -3.3 ± 0.23 | -2.83 ± 0.26 |
| CUGGAGCAAUAUUACGAGCG | -1.05 ± 0.094 | -0.179 ± 0.11 |
| AGGUAGCAAUAUUACGAAAU | -2.048 ± 0.018 | -1.19 ± 0.035 |
| CAGAAGCAAUAUUACGUCAU | – | -2.9 ± 0.25 |

| Sequence | self-splicing fitness (ln) (30 °C) | self-splicing fitness (ln) (37 °C) |
| --- | --- | --- |
| UUAAAGCAAUAUUACGGACG | 0.179 ± 0.079 | 0.835 ± 0.14 |
| CUCGAGCAAUAUUACGUCAA | -3.49 ± 0.3 | -1.81 ± 0.26 |
| AAUUAGCAAUAUUACGAACG | -0.548 ± 0.13 | -0.153 ± 0.19 |
| GUGAAGCAAUAUUACGCGGC | -2.03 ± 0.33 | -1.24 ± 0.4 |
| GCCUAGCAAUAUUACGGAAU | -1.23 ± 0.074 | -0.307 ± 0.093 |
| GCAGAGCAAUAUUACGACUU | -2.82 ± 0.16 | -0.936 ± 0.14 |
| AAGGAGCAAUAUUACGCGUA | -3.11 ± 0.28 | -1.29 ± 0.17 |
| CUGAAGCAAUAUUACGGGGC | -3.24 ± 0.21 | -2.56 ± 0.27 |
| AUUGAGCAAUAUUACGUCUA | -2.12 ± 0.17 | -1.77 ± 0.21 |
| UCAUAGCAAUAUUACGCUCC | -2.92 ± 0.31 | -0.786 ± 0.27 |
| CAGGAGCAAUAUUACGAUUA | -3.38 ± 0.31 | -2.37 ± 0.3 |
| AGUGAGCAAUAUUACGUCGC | -2.66 ± 0.41 | – |
| UCCGAGCAAUAUUACGUGCC | -3.03 ± 0.26 | -2.97 ± 0.35 |
| GUUUAGCAAUAUUACGUAAU | -1.15 ± 0.1 | 0.127 ± 0.13 |
| UCAGAGCAAUAUUACGAUGG | -2.97 ± 0.21 | -1.33 ± 0.2 |
| GCGGAGCAAUAUUACGUUGU | -2.96 ± 0.13 | -1.79 ± 0.14 |
| GAUAAGCAAUAUUACGCGAA | -2.31 ± 0.093 | -1.65 ± 0.11 |
| GGCGAGCAAUAUUACGUACG | -2.43 ± 0.18 | -1.35 ± 0.22 |
| GCCCAGCAAUAUUACGUCUC | -1.3 ± 0.085 | -0.175 ± 0.086 |
| AACCAGCAAUAUUACGAGAA | -1.71 ± 0.14 | -1.02 ± 0.13 |
| UACCAGCAAUAUUACGUAUA | -0.615 ± 0.058 | -0.199 ± 0.072 |
| CGUUAGCAAUAUUACGGGUA | -3.15 ± 0.37 | -2.08 ± 0.2 |
| UGCUAGCAAUAUUACGUGUC | -3.7 ± 0.42 | -2.72 ± 0.38 |
| AGGGAGCAAUAUUACGGCCA | -2.33 ± 0.33 | -0.91 ± 0.31 |
